Legend:
[1] = molecular target: AD-COP1 (UniProt P43254); assay: yeast three-hybrid (Y3H) competition assay (BD-HY5, AD-COP1); conditions: read off a plot
[2] = molecular target: E-COP1 (UniProt P43254); assay: mammalian three-hybrid (M3H) assay, GFP co-expressed as control third protein; conditions: CHO-K1 cells, 24 h, parent: est. 150, read off a plot
Chain of E-COP1 (P43254 whole entry): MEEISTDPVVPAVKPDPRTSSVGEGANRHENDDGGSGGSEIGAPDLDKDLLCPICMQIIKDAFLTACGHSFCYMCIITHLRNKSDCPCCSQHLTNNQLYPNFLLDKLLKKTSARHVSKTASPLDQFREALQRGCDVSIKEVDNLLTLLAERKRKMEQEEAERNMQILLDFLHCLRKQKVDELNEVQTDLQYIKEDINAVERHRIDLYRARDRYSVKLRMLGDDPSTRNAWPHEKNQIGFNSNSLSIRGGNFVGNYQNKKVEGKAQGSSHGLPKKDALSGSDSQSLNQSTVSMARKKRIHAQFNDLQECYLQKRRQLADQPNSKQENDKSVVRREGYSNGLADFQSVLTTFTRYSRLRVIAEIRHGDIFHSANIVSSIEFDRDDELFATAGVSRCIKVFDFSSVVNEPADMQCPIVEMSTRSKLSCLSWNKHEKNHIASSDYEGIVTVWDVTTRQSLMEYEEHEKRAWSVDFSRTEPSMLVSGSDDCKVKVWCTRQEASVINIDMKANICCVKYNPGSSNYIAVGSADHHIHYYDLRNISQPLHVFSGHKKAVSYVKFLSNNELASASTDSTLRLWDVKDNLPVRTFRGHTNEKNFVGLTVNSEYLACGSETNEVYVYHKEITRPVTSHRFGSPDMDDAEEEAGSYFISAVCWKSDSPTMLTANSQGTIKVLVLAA

Chain of AD-COP1 (P43254 whole entry): as above

Substance	other: COP1-HY5 interaction signal (β-galactosidase activity) with the CCT1 variant as bridge protein ([1]; 1 day in darkness, followed by exposure to 50 μmol m−2 s−1 blue light for 1 day, no-bridge control est. 5.7, higher signal = less displacement of HY5 by the …, parent: est. 1.7) [Miller units]	other: COP1-HY5 interaction signal (β-galactosidase activity) with the CCT1 variant as bridge protein ([1]; darkness for 2 days, no-bridge control est. 8.5, higher signal = less displacement of HY5 by the CCT1 variant, parent: est. 3.1) [Miller units]	response (Au (SEAP/sNLuc)) ([2]; blue light (10 μmol m−2 s−1))	response (Au (SEAP/sNLuc)) ([2]; darkness)
CCT1 (yeast three-hybrid 'bridge protein') V548A; P549A	6.9	7.8	–	–
HY5 fused to the herpes simplex virus-derived transactivation domain (VP16) (from UniProt O24646) HY5-VPAA (VP motif to AA; positions not printed)	–	–	7	5
